# The DeepSol protein solubility set
# Experiment: soluble on expression in E. coli; label from the status in PepcDB or PDB records
row,Sequence,soluble on expression in E. coli
1,MSLNDTVTVRISFAVNIATRVIAEVPLFSLTKPSHQELLQKIAEQSRSPFNYPDVGASLCEFPSGYEHHHHRVRLGRGQEVFDRAKEALGNWRQFDVGWVEAIPSDTSITVGNTIAIRVRIFGVWAMAFDRIVDVYGEQDGECRRFGFSVGTLTEHPEQGEERFSIEIDREDHVDYEVAAFFRPNTLAAKMAWPVLHRRFNRFRNQSAEAMQLACKLGPSSEGHHHHHH,not soluble
2,MKIEVVSALPHSTVHSAVLSRRHRSVICAGPYEVLPLEGCSEPLPSTSTLSELPIECLRLSTDERTIGAATNAILKVADIITGHEVRNLTGHTLPITSLAASKFNPYCWYTGSSDCDWTQWDTRMNPSKIFGSKTPGVVRSIALSPGDRYVAVGTDETIQIFDARQREFIKTFNCSGHALELHPSDVLLSSVGHDRIVRFFCLETFEMISQSDPFLDDIQASAFDTHVMIAATNDSINLLTWEPCCDILTTVPLKNVEKVVNVNANGLDLDFICIGDNTERLEMRTYAIEELLSYSPSHELCGSIYEEDEDVDNSPIDEVKALPELTELSNLPPRSPGLSCEETETSASPVNSSSSHSSPTSPVKPAPVKHRSASQKLPGKSTKTLNPKPAGSTRSVTPVSTKPPRTFGTAKSVIVSSKPSLSGYNNRANPSPSMSDLRTTKSMAGSTTSLLSERAPKKRSTSSRRNQEPITITYIGRPRTPSEGDVASTVSSSTSRNRRPSPSVAKKTSPPSIYAITSSPAKRASSTASGPTARRQNSTSSVTSTTSAKTPVGVWGACIETVHDIGIVAKKENRNIRRLKMLTSRRTSNVDIPPEVCSDEQLVLTATRILSRRNDWSLNSCHAYLPVIIDNIASVDVTNRAIALEGLAAIADTLGERLVKFASMNSHRIGVDVAAEERAEKAKACVQHLRSLVKKRDWYYKQLDEPSILKLDPILELLKKI,not soluble
3,MDFRANLQRQVKPKTVSEEERKVHSPQQVDFRSVLAKKGTSKTPVPEKVPPPKPATPDFRSVLGGKKKLPAENGSSSAETLNAKAVESSKPLSNAQPSGPLKPVGNAKPAETLKPMGNAKPAETLKPMGNAKPDENLKSASKELKKDVKNDVNCKRGHAGTTDNEKRSESQGTAPAFKQKLQDVHVAEGKKLLLQCQVSSDPPATIIWTLNGKTLKTTKFIILSQEGSLCSVSIEKALPEDRGLYKCVAKNDAGQAECSCQVTVDDAPASENTKAPEMKSRRPKSSLPPVLGTESDATVKKKPAPKTPPKAAMPPQIIQFPEDQKVRAGESVELFGKVTGTQPITCTWMKFRKQIQESEHMKVENSENGSKLTILAARQEHCGCYTLLVENKLGSRQAQVNLTVVDKPDPPAGTPCASDIRSSSLTLSWYGSSYDGGSAVQSYSIEIWDSANKTWKELATCRSTSFNVQDLLPDHEYKFRVRAINVYGTSEPSQESELTTVGEKPEEPKDEVEVSDDDEKEPEVDYRTVTINTEQKVSDFYDIEERLGSGKFGQVFRLVEKKTRKVWAGKFFKAYSAKEKENIRQEISIMNCLHHPKLVQCVDAFEEKANIVMVLEIVSGGELFERIIDEDFELTERECIKYMRQISEGVEYIHKQGIVHLDLKPENIMCVNKTGTRIKLIDFGLARRLENAGSLKVLFGTPEFVAPEVINYEPIGYATDMWSIGVICYILVSGLSPFMGDNDNETLANVTSATWDFDDEAFDEISDDAKDFISNLLKKDMKNRLDCTQCLQHPWLMKDTKNMEAKKLSKDRMKKYMARRKWQKTGNAVRAIGRLSSMAMISGLSGRKSSTGSPTSPLNAEKLESEEDVSQAFLEAVAEEKPHVKPYFSKTIRDLEVVEGSAARFDCKIEGYPDPEVVWFKDDQSIRESRHFQIDYDEDGNCSLIISDVCGDDDAKYTCKAVNSLGEATCTAELIVETMEEGEGEGEEEEE,soluble
4,MAAMITPPGAGVKDKKRAILEATLAVLRERGLSGLKMEEVARRAEVGKGTIYLYFRDKRDLLKALVEERTWAFYREVEEVVRRKAPFFVRLEEVLRRRLAWVQEWRGLWAAVAREAMDDPTPWLKGLHEHYLRLLEELLRSGQSEGAVRTGLSPRATAAVIAAMGCTPSLEVEAYLEHLMEVLRKGVEP,soluble
5,MSHVDDGFRSLTLKRFPQTDDVNPLLAWEAADEYLLQQLDETEIRGPVLILNDTFGALSCALAEHSPYSIGDSYLSELGTRENLRHNGIAESSVTFLDSTADYPQAPGVVLIKVPKTLALLEQQLRALRKVVTAQTRIIAGAKARDIHTSTLELFEKVLGPTTTTLAWKKARLINCTFSHPQLADAPQTLSWKLEDTGWTIHNHANVFSRTGLDIGARFFMQHLPENLDGEIVDLGCGNGVIGLSLLAKNPQANVVFVDESPMAVDSSRLNVETNLPEAFERCEFMINNALSGVEPFRFNAVFCNPPFHQKHALTDNIAWEMFHHARRCLKINGELYIVANRHLDYFHKLKKIFGNCATIATNNKFVILKAVKQGRRR,not soluble
